Test results taken from paper PMC12247033, “Exploring the Stability and Substrate Profile of Transaminase from Silicibacter pomeroyi with Ancestral Sequence Reconstruction” (Chembiochem, 2025).

How the values were obtained:
[1] = substrate: C[C@H](N)c1ccccc1; experiment: purified protein; type: biochemical, synthetic construct; conditions: co-substrate sodium pyruvate; 5 mM PLP; (S)-PEA 0.1-15 mM
[2] = substrate: C[C@H](N)c1ccccc1; experiment: purified protein; type: biochemical, Ruegeria pomeroyi; conditions: co-substrate sodium pyruvate; 5 mM PLP; (S)-PEA 0.1-15 mM

B1: N50 (synthetic construct) (protein)
chain: MSMSTITNHMPTAELQALDAAHHMHPFSTNNELAEEGVRVITRAKGVWLTDSEGEEILDAMAGLWCVNIGYGRDELAEVAARQMRELPYYNTFFKTTHVPAIALAQKLAELAPGDLNHVFFAGGGSEANDTNIRMVRTYWAEKGKPEKNVIISRKNAYHGSTVGSASLGGMAGMHAQGGIPIPDIHHINQPNWWAEGRPGDTGMTPEEFGLARARELEEAILELGEDRVAAFIAEPVQGAGGVIVAPDTYWPEIQRICDKYEILLIADEVICGFGRTGNWFGSQTMGIRPHIMTIAKGLSSGYAPIGGSIVCDEVAEVIIGGKCEFNHGYTYSGHPVAAAVALENLRILEEENIIDHVRNVAAPYLKEKWEALTDHPLVGEAKIVGMMGSIALTPDKATRAKFASEPGTIGYICRERCFANNLVMRHVGDRMIISPPLVITPEEIDEMFVRIRKSLDEAHAEILRQGLMKAAG
notes: pET22b(+), E. coli BL21(DE3), Ni-NTA purified
- Km [1]: 6.22 ± 1.01 mM
- kcat [1]: 0.39 ± 0.03 s⁻¹

B2: Sp-ATA (Ruegeria pomeroyi DSS-3) (protein)
chain: MATITNHMPTAELQALDAAHHLHPFSANNALGEEGTRVITRARGVWLNDSEGEEILDAMAGLWCVNIGYGRDELAEVAARQMRELPYYNTFFKTTHVPAIALAQKLAELAPGDLNHVFFAGGGSEANDTNIRMVRTYWQNKGQPEKTVIISRKNAYHGSTVASSALGGMAGMHAQSGLIPDVHHINQPNWWAEGGDMDPEEFGLARARELEEAILELGENRVAAFIAEPVQGAGGVIVAPDSYWPEIQRICDKYDILLIADEVICGFGRTGNWFGTQTMGIRPHIMTIAKGLSSGYAPIGGSIVCDEVAHVIGKDEFNHGYTYSGHPVAAAVALENLRILEEENILDHVRNVAAPYLKEKWEALTDHPLVGEAKIVGMMASIALTPNKASRAKFASEPGTIGYICRERCFANNLIMRHVGDRMIISPPLVITPAEIDEMFVRIRKSLDEAQAEIEKQGLMKSAA
notes: wild type, pET22b(+), E. coli BL21(DE3), Ni-NTA purified (His-tag), homodimer
- Km [2]: 3.64 ± 0.31 mM
- kcat [2]: 6.33 ± 0.19 s⁻¹

B3: N49 (synthetic construct) (protein)
chain: MSMSTITNHMPTAELQALDAAHHMHPFTTNNELAEKGARVITRAKGVWLTDSEGEEILDAMAGLWCVNIGYGRDELAEVAARQMRELPYYNTFFQTTHVPAIALAAKLAELAPGDLNHVFFAGGGSEANDTNIRMVRTYWAEKGKPEKNIIISRKNAYHGSTVGSASLGGMAGMHAQGGLPIPDIHHIDQPNWWAEGRPGDTGMTPEEFGLARARELEQAILELGEDRVAAFIAEPVQGAGGVIVAPDTYWPEIQRICDKYEILLIADEVICGFGRTGNWFGSQTMGIRPHIMTIAKGLSSGYAPIGGSIVCDEVAEVIIGGKCEFNHGYTYSGHPVAAAVALENLRILEEENIIDHVRNVAAPYLKEKWEALTDHPLVGEAKIVGMMGSIALTPDKATRAAFASEPGTVGYICRERCFANNLVMRHVGDRMIISPPLVITPEEIDTLIERARKSLDEAHAELKRQGLMKAAG
notes: as for B1
- Km [1]: 2.02 ± 0.19 mM
- kcat [1]: 1.10 ± 0.03 s⁻¹
